Several values for one entry are separate records, joined by “and”; a condition that tells them apart may be missing. Equal entries are not always repeated.
Columns and labels:
[1] = tested on: human MDA-MB-468 breast adenocarcinoma tumor xenografts; test: MDA-MB-468 xenograft efficacy in NOD/SCID mice (Example 3); format: in vivo, mouse; conditions: single dose on Day 0; for T/C (%) / TGI (%): Day 42
Method: The efficacies of two anti-TROP2-MMAE antibody drug conjugates, DP002-HC1LC5-ADC (DAR ˜2) and DP002-HC4LC5-ADC (DAR ˜1.6-2.3), in inhibiting tumor growth in mice bearing human MDA-MB-468 breast adenocarcinoma tumor xenografts were tested. DP002-HC1LC5-ADC comprises an anti-TROP antibody that comprises HC 1 (SEQ ID NO: 52) and LC5 (SEQ ID NO: 62); DP002-HC4LC5-ADC comprises an anti-TROP antibody that comprises HC 4 (SEQ ID NO: 44) and LC5 (SEQ ID NO: 62). Briefly, 48 NOD/SCID mice (female, 6-8 weeks of age) were implanted with 0.1 ml MDA-MB-468 cells (lx 10^7 cell/ml). When the tumors sizes reached above 181 mm^3 (34 days after tumor inoculation), the mice were sorted randomly into 7 groups (6 mice/group) and treated according to the schedule provided in Table 10 below: […]

[2] = tested on: xenografted MDA-MB-468 human breast adenocarcinoma tumors; test: MDA-MB-468 xenograft efficacy in female nude mice (Example 4); format: in vivo, mouse
Method: The anti-tumor activity of DP002-HC4LC5-ADC was evaluated as a single agent in female nude mice bearing xenografted MDA-MB-468 human breast adenocarcinoma tumors.
Each mouse was inoculated with 5×10^6 MDA-MB-468 tumor cells (in 0.1 mL, 1:1 with Matrigel) at the right flank by subcutaneous administration under sterile conditions. When the tumors reached a volume of ˜150 mm^3, mice were randomized into one of 7 treatment groups (6 mice per group), as outlined in Table 12, and treatments began. All doses of DP002-HC4LC5-ADC were administered by intravenous injection via tail vein injection.
Tumor size and animal body weight were measured twice per week. Clinical signs were recorded daily. Tumors were measured using a caliper in two dimensions (i.e., length (a) and width (b)), and tumor volumes were estimated from measurements of the two diameters of the individual tumors as follows: Tumor Volume (mm^3)=(a×b^2)/2.
Average tumor growth curves for each treatment group were plotted with the observation time on the X-axis, and corresponding tumor volume (geometric mean) on the Y-axis. A two-tailed t-test was used to analyze the statistical significance of any differences between the treatment groups and the control group. Tumor Growth Inhibition (TGI) was calculated after each tumor volume measurement according to the formula: % TGI=(TVcn−TVtn)/TVcn×100, where TVtn and TVcn are the mean tumor Volume of treated and control groups, respectively. Body weight change (CBW %) was calculated after each body weight measurement according to the formula: CBW %=(BWn−BW0)/BW0×100, where BWn is the body weight at day n and BW0 is the body weight at day 0 respectively.

[3] = 1 mg/kg IV Days 0, 7, 14, 21, n = 6
[4] = 1 mg/kg IV once on Day 0, n = 6 unless specified
[5] = 2 mg/kg IV Day 0 + 1 mg/kg IV Days 7, 14
[6] = 2 mg/kg IV Day 0 + 1 mg/kg IV Days 7, 14, n = 6 unless specified
[7] = 2 mg/kg IV once on Day 0, n = 6 unless specified

B1: DP002-HC4LC5-ADC: anti-TROP2-MMAE antibody drug conjugate (DAR ~1.6-2.3) of antibody with HC4 and LC5 (SEQ ID NO: 62) (conjugate)
VH: EVQLVQSGAEVKKPGESLKISCKGSGYTFTDYSINWVRQMPGKGLEWMGVISTYYGDASYNQKFKGQVTISADKSISTAYLQWSSLKASDTAMYYCARYGDGYNQFDYWGQGTLVTVSS
light: DIQMTQSPSSLSASVGDRVTITCRVSESVDSYGNNFMHWYQQKPGKAPKLLIYRASNLESGVPSRFSGSGSGTDFTFTISSLQPEDIATYYCQQSYEDPYTFGGGTKLEIKRTVAAPSVFIFPPSDEQLKSGTASVVCLLNNFYPREAKVQWKVDNALQSGNSQESVTEQDSKDSTYSLSSTLTLSKADYEKHKVYACEVTHQGLSSPVTKSFNRGEC
modifications: MMAE conjugate
**Q.** B1 was tested. Which “Tumor Size (mm^3) at Day 42, mean ± SEM” value ([1]; 1 mg/kg intravenous) did it give?
**A.** 620 ± 61 mm^3

**Q.** And the “Tumor Size (mm^3) at Day 42, mean ± SEM” value ([1]; 4 mg/kg intravenous)?
**A.** 4 ± 2 mm^3

**Q.** What about the “average tumor volume on Day 56” value ([1]; 4 mg/kg intravenous) of the same molecule?
**A.** 3 mm^3

**Q.** What about the “T/C (%)” value ([1]; 1 mg/kg intravenous) of the same molecule?
**A.** 82%

**Q.** What about the “TGI (%)” value ([1]; 1 mg/kg intravenous) of the same molecule?
**A.** 18%

**Q.** What about the “T/C (%)” value ([1]; 4 mg/kg intravenous) of the same molecule?
**A.** 0%

**Q.** And the “TGI (%)” value ([1]; 4 mg/kg intravenous)?
**A.** 100%

**Q.** What about the “% TGI Day 70” value ([2]; 1 mg/kg IV Days 0, 7, 14, 21) of the same molecule?
**A.** 85.88%

**Q.** What about the “% of mice with tumor regression at the end of the study” value (shortened to “% of mice with tumor regression”) ([2]; 1 mg/kg IV Days 0, 7, 14, 21) of the same molecule?
**A.** 30%

**Q.** What about the “Tumor Volume (mm^3, Mean ± SEM) Day 70” value ([2]; 1 mg/kg IV Days 0, 7, 14, 21) of the same molecule?
**A.** 191.51 mm^3 and 192.51 ± 91.38*** mm^3

**Q.** And the “Tumor Weight (g, Mean ± SEM) Day 84” value ([2]; 1 mg/kg IV Days 0, 7, 14, 21)?
**A.** 0.421 ± 0.218 g

**Q.** What about the “Number of mice demonstrating full tumor regression at Week 4 following first dose” value (“Number … at Week 4 following first dose” for short) [2, 3] of the same molecule?
**A.** 1

**Q.** And the “Number of mice demonstrating full tumor regression at Week 5 following first dose” value (“Number … at Week 5 following first dose” for short) [2, 3]?
**A.** 1

**Q.** And the “Number of mice demonstrating full tumor regression at Week 6 following first dose” value (“Number … at Week 6 following first dose” for short) [2, 3]?
**A.** 1

**Q.** What about the “Number of mice demonstrating full tumor regression at Week 7 following first dose” value (“Number … at Week 7 following first dose” for short) [2, 3] of the same molecule?
**A.** 2

**Q.** And the “Number of mice demonstrating full tumor regression at Week 8 following first dose” value (“Number … at Week 8 following first dose” for short) [2, 3]?
**A.** 2

**Q.** What about the “Number of mice demonstrating full tumor regression at Week 9 following first dose” value (“Number … at Week 9 following first dose” below) [2, 3] of the same molecule?
**A.** 2

**Q.** What about the “Number of mice demonstrating full tumor regression at Week 10 following first dose” value (shortened to “Number … at Week 10 following first dose”) [2, 3] of the same molecule?
**A.** 2

**Q.** And the “Number of mice demonstrating full tumor regression at Week 11 following first dose” value (from here on “Number … at Week 11 following first dose”) [2, 3]?
**A.** 2/6 and 2

**Q.** What about the “Number of mice demonstrating full tumor regression at Week 12 following first dose” value (“Number … at Week 12 following first dose” for short) [2, 3] of the same molecule?
**A.** 2

**Q.** What about the “% TGI Day 70” value ([2]; 1 mg/kg IV once on Day 0) of the same molecule?
**A.** 62.16%

**Q.** What about the “Tumor Volume (mm^3, Mean ± SEM) Day 70” value ([2]; 1 mg/kg IV once on Day 0) of the same molecule?
**A.** 515.77 mm^3 and 515.77 ± 127.38*** mm^3

**Q.** And the “Tumor Weight (g, Mean ± SEM) Day 84” value ([2]; 1 mg/kg IV once on Day 0)?
**A.** 0.658 ± 0.165 g

**Q.** What about the “Tumor Weight (g, Mean ± SEM) Day 77” value ([2]; 1 mg/kg IV once on Day 0, animals euthanized Day 77) of the same molecule?
**A.** 0.972 ± 0.165 g

**Q.** What about the “Number … at Week 4 following first dose” value [2, 4] of the same molecule?
**A.** 0

**Q.** What about the “Number … at Week 5 following first dose” value [2, 4] of the same molecule?
**A.** 0

**Q.** What about the “Number … at Week 6 following first dose” value [2, 4] of the same molecule?
**A.** 0

**Q.** And the “Number … at Week 7 following first dose” value [2, 4]?
**A.** 0

**Q.** What about the “Number … at Week 8 following first dose” value [2, 4] of the same molecule?
**A.** 0

**Q.** What about the “Number … at Week 9 following first dose” value [2, 4] of the same molecule?
**A.** 0

**Q.** What about the “Number … at Week 10 following first dose” value [2, 4] of the same molecule?
**A.** 0

**Q.** What about the “Number … at Week 11 following first dose” value [2, 4] of the same molecule?
**A.** 0

**Q.** What about the “Number … at Week 12 following first dose” value [2, 4] of the same molecule?
**A.** 0 (n = 4)

**Q.** What about the “% TGI Day 70” value [2, 5] of the same molecule?
**A.** 87.61%

**Q.** And the “% of mice with tumor regression” value [2, 5]?
**A.** 100%

**Q.** What about the “Tumor Volume (mm^3, Mean ± SEM) Day 70” value [2, 5] of the same molecule?
**A.** 168.94 mm^3 and 168.94 ± 168.94*** mm^3

**Q.** And the “Tumor Weight (g, Mean ± SEM) Day 84” value [2, 5]?
**A.** 0.000 ± 0.000 g

**Q.** What about the “Tumor Weight (g, Mean ± SEM) Day 77” value ([2]; 2 mg/kg IV Day 0 + 1 mg/kg IV Days 7, 14, animal euthanized Day 77) of the same molecule?
**A.** 0.749 g

**Q.** And the “Number … at Week 4 following first dose” value [2, 6]?
**A.** 5

**Q.** What about the “Number … at Week 5 following first dose” value [2, 6] of the same molecule?
**A.** 5

**Q.** What about the “Number … at Week 6 following first dose” value [2, 6] of the same molecule?
**A.** 5

**Q.** What about the “Number … at Week 7 following first dose” value [2, 6] of the same molecule?
**A.** 5

**Q.** And the “Number … at Week 8 following first dose” value [2, 6]?
**A.** 5

**Q.** And the “Number … at Week 9 following first dose” value [2, 6]?
**A.** 5

**Q.** What about the “Number … at Week 10 following first dose” value [2, 6] of the same molecule?
**A.** 5

**Q.** What about the “Number … at Week 11 following first dose” value [2, 6] of the same molecule?
**A.** 5/6 and 5

**Q.** And the “Number … at Week 12 following first dose” value [2, 6]?
**A.** 5 (n = 5)

**Q.** What about the “% TGI Day 70” value ([2]; 2 mg/kg IV once on Day 0) of the same molecule?
**A.** 89.74%

**Q.** What about the “% of mice with tumor regression” value ([2]; 2 mg/kg IV once on Day 0) of the same molecule?
**A.** 20%

**Q.** What about the “Tumor Volume (mm^3, Mean ± SEM) Day 70” value ([2]; 2 mg/kg IV once on Day 0) of the same molecule?
**A.** 139.85 mm^3 and 139.85 ± 99.80*** mm^3

**Q.** And the “Tumor Weight (g, Mean ± SEM) Day 84” value ([2]; 2 mg/kg IV once on Day 0)?
**A.** 0.089 ± 0.048 g

**Q.** And the “Tumor Weight (g, Mean ± SEM) Day 77” value ([2]; 2 mg/kg IV once on Day 0, animal euthanized Day 77)?
**A.** 1.004 g

**Q.** What about the “Number … at Week 4 following first dose” value [2, 7] of the same molecule?
**A.** 2

**Q.** What about the “Number … at Week 5 following first dose” value [2, 7] of the same molecule?
**A.** 2

**Q.** What about the “Number … at Week 6 following first dose” value [2, 7] of the same molecule?
**A.** 2

**Q.** And the “Number … at Week 7 following first dose” value [2, 7]?
**A.** 2
